Source: the Human Domainome abundance scans (Beltran et al. 2025)
± gives the uncertainty stated by the source.

B1: Intersectin-1, residues 909 to 971; numbered along this chain, Q15811 (parent)
chain: QGEKVEGLQAQALYPWRAKKDNHLNFNKNDVITVLEQQDMWWFGEVQGQKGWFPKSYVKLISG

Variants of: B1
Experiment: abundance fitness (aPCA) (normalised: wild type 0, dead -1); higher = more abundant; growth selection in yeast, the domain comes from the species named
Conditions: Homo sapiens

Variant | abundance fitness
GGEKVEGLQAQALYPWRAKKDNHLNFNKNDVITVLEQQDMWWFGEVQGQKGWFPKSYVKLISG | -0.083 ± 0.12
QGEKVEGLQAQALYPWRAKKDNHLNFNKNDVITVLEQQDMWWFGEVQGQKGWFPKSYVKLISR | -0.029 ± 0.086
QGEKVEGLQAQALYPPRAKKDNHLNFNKNDVITVLEQQDMWWFGEVQGQKGWFPKSYVKLISG | -0.691 ± 0.27
QGEKVEGLQAQALYPWRAKKDNHLNFNKNDVITVLEQQDMWWFGEVQGQKGWFPLSYVKLISG | -0.24 ± 0.36
QGEKVEGLQAQALYPWRAKYDNHLNFNKNDVITVLEQQDMWWFGEVQGQKGWFPKSYVKLISG | -0.15 ± 0.056
QGEKVEGLQAQALYPWRAKKDNHLNFNKNDVITVLKQQDMWWFGEVQGQKGWFPKSYVKLISG | 0.017 ± 0.26
QGEKVEGLQAQALYPWRAKKDNHLNFNKNDVITVLEQQDMYWFGEVQGQKGWFPKSYVKLISG | -0.053 ± 0.18
QGEKVEGLQAQALYPWRAKKDNHLNFNKNDVITVLEQQDMKWFGEVQGQKGWFPKSYVKLISG | -0.427 ± 0.31
QGEKVEGLQAQALYPWRAKKDNHLNFNKNDVITVLEQQDMWWFGEVQMQKGWFPKSYVKLISG | -0.226 ± 0.17
QGEKVEGLQAQALYPWHAKKDNHLNFNKNDVITVLEQQDMWWFGEVQGQKGWFPKSYVKLISG | -0.108 ± 0.28
QGEKVEGLCAQALYPWRAKKDNHLNFNKNDVITVLEQQDMWWFGEVQGQKGWFPKSYVKLISG | -0.109 ± 0.17
QGEKVEGLQAQALYPWRAKKFNHLNFNKNDVITVLEQQDMWWFGEVQGQKGWFPKSYVKLISG | -0.131 ± 0.075
QGEKVEGLQAQALYPWRAKKDNHLNFNKNDVITVLEQQDMWWFGEVQGQKGWFPKSYVKLASG | -0.073 ± 0.097
QGEKVEGLQAQALYPWRAKKDNHLNFNKNDVITVLEQQVMWWFGEVQGQKGWFPKSYVKLISG | -0.304 ± 0.14
QGEKVEGLQAQALYPWRAKKDNHLNFNKNDVITVLEQQDMSWFGEVQGQKGWFPKSYVKLISG | -0.274 ± 0.085
QGEKVEGLQAQALYPWRAKKDNHLNFNKTDVITVLEQQDMWWFGEVQGQKGWFPKSYVKLISG | -0.311 ± 0.17
QGEKVEGLQCQALYPWRAKKDNHLNFNKNDVITVLEQQDMWWFGEVQGQKGWFPKSYVKLISG | -0.174 ± 0.36
QGEKVEGLQAQALYPWRAKKDNHLNFNKNDVITVLENQDMWWFGEVQGQKGWFPKSYVKLISG | -0.279 ± 0.22
QGEKVEGLQAQALYPWVAKKDNHLNFNKNDVITVLEQQDMWWFGEVQGQKGWFPKSYVKLISG | 0.061 ± 0.096
QGEKVEGLQAQALYPWRAKKDNHLNFNKNDVITVLEQQDMWWFGRVQGQKGWFPKSYVKLISG | -0.034 ± 0.12
QGEKVSGLQAQALYPWRAKKDNHLNFNKNDVITVLEQQDMWWFGEVQGQKGWFPKSYVKLISG | -0.16 ± 0.12
QGEKVEGLQAQALYPWRAKKDNHLNFNKNDVITVLEQQDMWWFGEVQGQKGWFPKSYVKLIRG | -0.101 ± 0.11

Variant | abundance fitness
QGHKVEGLQAQALYPWRAKKDNHLNFNKNDVITVLEQQDMWWFGEVQGQKGWFPKSYVKLISG | -0.088 ± 0.46
QGEKVEGLQAQALYRWRAKKDNHLNFNKNDVITVLEQQDMWWFGEVQGQKGWFPKSYVKLISG | -0.018 ± 0.077
QGEKVEGLQAQALYPWRAKKDNHLNMNKNDVITVLEQQDMWWFGEVQGQKGWFPKSYVKLISG | 0.014 ± 0.48
QGEKVEGLQAMALYPWRAKKDNHLNFNKNDVITVLEQQDMWWFGEVQGQKGWFPKSYVKLISG | -0.119 ± 0.14
QGEKVEGLQAQALYPWRAKKDNHLNFNDNDVITVLEQQDMWWFGEVQGQKGWFPKSYVKLISG | -0.145 ± 0.46
QGEKVEGLQAQALYPWRAKKDNHLNFNKNDVITVLEQQDMWWFGEVQGQKGWFFKSYVKLISG | -0.8 ± 0.46
QGEKVEGLQAQALYDWRAKKDNHLNFNKNDVITVLEQQDMWWFGEVQGQKGWFPKSYVKLISG | -0.156 ± 0.17
QGEKVEGLQAQALYPWRAKKDNHLNFNKNEVITVLEQQDMWWFGEVQGQKGWFPKSYVKLISG | -0.089 ± 0.04
QGEKVDGLQAQALYPWRAKKDNHLNFNKNDVITVLEQQDMWWFGEVQGQKGWFPKSYVKLISG | -0.221 ± 0.26
QGEKVEGLQAQALYPWRAEKDNHLNFNKNDVITVLEQQDMWWFGEVQGQKGWFPKSYVKLISG | 0 ± 0.084
QGEKVEGLQAQALYPWRAKKDNHLNFNKNDVITVLEQQDMWWFGEVQGQKGWFPKSYVTLISG | -0.31 ± 0.13
QGEKVEGLQAQALYPWRAKIDNHLNFNKNDVITVLEQQDMWWFGEVQGQKGWFPKSYVKLISG | -0.092 ± 0.053
QGEKVEGEQAQALYPWRAKKDNHLNFNKNDVITVLEQQDMWWFGEVQGQKGWFPKSYVKLISG | -0.003 ± 0.11
QGEKGEGLQAQALYPWRAKKDNHLNFNKNDVITVLEQQDMWWFGEVQGQKGWFPKSYVKLISG | -0.155 ± 0.084
QGEKVEGLQAQALYPWRAIKDNHLNFNKNDVITVLEQQDMWWFGEVQGQKGWFPKSYVKLISG | -0.028 ± 0.053
QGEKVEGLQAQALYPWRAKKDNPLNFNKNDVITVLEQQDMWWFGEVQGQKGWFPKSYVKLISG | -0.596 ± 0.18
QGEKVEGLQAQALYPWRAKKDNHLNFNKNDVITVLEQQDMWWFGEVQGQKGWFPKSYVKTISG | -0.162 ± 0.1
QGEKVEGLQAQALYPWRAKKDNHLNFNKNDVITVLEQQDGWWFGEVQGQKGWFPKSYVKLISG | -0.109 ± 0.11
QGEKVEGLQAQALYPWRAKKDNHLNFNKNDVITVLEQQDMWWFGEVQGQKGWFPKSYLKLISG | -0.812 ± 0.16
QGEKVEGLQAQALYPWRAKKDNTLNFNKNDVITVLEQQDMWWFGEVQGQKGWFPKSYVKLISG | -0.207 ± 0.14
QGEKVEGLQAQALYPWRAKKDNHLNFNKNDVITVLMQQDMWWFGEVQGQKGWFPKSYVKLISG | -0.177 ± 0.22
